# ± gives the standard deviation of the averaged measurements.
# Tested on: ATP
# Test: switch fluorescence ratio, 500 uM ATP over buffer (Cy3 cluster intensity, sum of 5 cycles each) (fold (ratio)); higher = stronger signal-on switching upon ATP binding; sequences stand for … in TCGTCGGCAGCGTCAGATGTGTATAAGAGACAGTTTTTTTTTTTTTTTTTTTTTTTTT…TC
# Settings: aptamer strand: ATP DNA aptamer (quencher-CACCTGGGGGAGTATTGCGGAGGAAGG + anchor), 100 nM annealed; ATP concentration: 500 uM
# Outline: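 Between each of five buffer/ATP cycles, the flow-cell was stripped with NaOH and re-annealed. Each cycle imaged Cy3-labelled switching-strand clusters, annealed to 100 nM quencher-labelled ATP aptamer on a modified Illumina MiSeq flow-cell, first in selection buffer and then after 15 min with 500 uM ATP at 22 °C. The fluorescence ratio is summed target-cycle over summed buffer-cycle Cy3 intensity per cluster, averaged per switch-domain sequence, with clusters outside 100-1000 RFU excluded.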
# 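Note: ATP exposure 15 min at 22 °C before imaging.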
row,Sequence,switch fluorescence ratio
1,GTGAGTGTTT,0.99 ± 0.011
2,TCCGAGGCGG,2.131 ± 0.017
3,TGTTTGAGGC,0.997 ± 0.044
4,GTTCGCATTG,1.08 ± 0.024
5,ACTTGAAGTG,0.997 ± 0.021
6,TAAGGTTGTA,0.9705 ± 0.0047
7,AGCAGAAGGA,1.02 ± 0.015
8,GAAGGGGGTA,0.996 ± 0.028
9,GCTCAAAGCT,1.01 ± 0.043
10,ATTAAAGGGA,1 ± 0.037
11,GTTGTGTTAA,0.997 ± 0.014
12,TTTAATGTTT,1 ± 0.017
13,TACGTTCCTG,1.03 ± 0.028
14,CGGTTTACGT,0.997 ± 0.018
15,AGGGGTATGT,0.989 ± 0.023
16,AAGGGAATAC,2.6 ± 0.82
17,CCTTCTGGGG,1.12 ± 0.051
18,TAAGGCGTAG,1.08 ± 0.061
19,GGCCCGGGTT,0.994 ± 0.019
20,TTGTTGTACT,1.02 ± 0.014
21,GTTAAAACTT,1.005 ± 0.0097
22,TGGATTTGGG,0.9969 ± 0.0066
23,TTTTATGGAT,1.01 ± 0.013

row,Sequence,switch fluorescence ratio
1,AGGTTTAAAC,1.06 ± 0.063
2,GGAACAAGGT,0.988 ± 0.059
3,AAGCAGGGCT,0.999 ± 0.019
4,TATAAGTGTT,1.002 ± 0.0067
5,ATAGTAGGTT,1.01 ± 0.017
6,ACGACTTCTT,0.989 ± 0.019
7,GGCTTTATTC,0.984 ± 0.044
8,CGAGTTGATC,0.973 ± 0.028
9,AAGATATGGC,1.02 ± 0.047
10,TTTTGCGGTT,0.998 ± 0.038
11,TTTTTTTGGC,1.02 ± 0.029
12,TAACTATTTT,1.01 ± 0.016
13,TTTCGGGTAT,1.05 ± 0.011
14,AACCGGTGCA,1.08 ± 0.017
15,ATATTCTTGG,0.9852 ± 0.0026
16,TGGTAGAGAG,0.9883 ± 0.0075
17,AAAAAACGTG,1.06 ± 0.091
18,GATGCATGGC,1.12 ± 0.035
19,GGGGGCCGCT,1.02 ± 0.036
20,AAAATTTAAC,1.01 ± 0.023
21,TGAGTTTGGC,0.9862 ± 0.0013
22,GCGTTGGAGC,0.9949 ± 0.0072
23,AATGCTTCTC,1.03

row,Sequence,switch fluorescence ratio
1,CAAAGTTGCG,0.984 ± 0.017
2,CAAGACCACT,1.06 ± 0.045
3,GTCTAACTGT,0.994 ± 0.029
4,GAAAACAGTT,0.9951 ± 0.0053
5,GGGTGTAGCC,1.04 ± 0.037
6,TTGTAATTGT,0.995 ± 0.021
7,TCGGCTCTTG,1.013 ± 0.0046
8,GGGGGAATCA,0.9748 ± 0.0039
9,AAGTCTAAGG,0.964 ± 0.05
10,AGATTTAGTC,1 ± 0.051
11,CGGGCTTATT,0.988 ± 0.02
12,AGTTGGGGAG,0.9933 ± 0.0023
13,TCGTCTAAGG,0.995 ± 0.014
14,GGACTTCCTG,1.003 ± 0.0065
15,AGCTTCGTGG,0.971 ± 0.019
16,GCATGATGGG,0.986 ± 0.043
17,AGCTTAGGTC,1.03 ± 0.029
18,TTTTCGGTGA,0.9713 ± 0.0057
19,GAGATAAGCT,1.04 ± 0.022
20,TTCTTTTGGG,0.987 ± 0.039
21,ATGAACTCAG,1.03 ± 0.037
22,TTATTTGCAT,0.994 ± 0.013
23,TCGTGTATGA,1.036 ± 0.0059

row,Sequence,switch fluorescence ratio
1,GGGAGAAGAG,0.979 ± 0.036
2,CAATAAAGCT,1.07 ± 0.041
3,AGATTAAGTA,0.989 ± 0.024
4,ATTGGCGGTT,1.09 ± 0.1
5,TTTATAGCGA,1.63 ± 0.54
6,TGTCGGGGAG,1.01 ± 0.018
7,TAGAGAAGCA,1.012 ± 0.0061
8,CGGGAATTTT,1 ± 0.013
9,AGTTTGGTTG,0.991 ± 0.053
10,TGGTGGGATT,0.995 ± 0.012
11,GGCTTAAGGG,0.972 ± 0.025
12,CGGCTATTAA,1.044 ± 0.0086
13,TATAAAAACG,1.11 ± 0.2
14,ATTAGCAGGC,1.11 ± 0.012
15,CGCAGGTTTG,1.03 ± 0.011
16,GGGTGCTGCT,0.954 ± 0.033
17,TAGGGGTTTT,1.01 ± 0.024
18,AATTAGGTGA,1.04 ± 0.031
19,TACGCCTGCA,1.059 ± 0.0084
20,TTTTTCCCCG,1.33 ± 0.6
21,GCATTGATGT,1.02 ± 0.017
22,GGCGAGAACG,0.986 ± 0.018
23,ATATTATTGA,0.9818 ± 0.0049

row,Sequence,switch fluorescence ratio
1,AGACCAATTC,1.095 ± 0.0037
2,ACTACAAGTT,1 ± 0.026
3,CGGCCAGCTG,1.03 ± 0.03
4,CGTAAGACGT,1.03 ± 0.044
5,GCTTGGGGGT,0.987 ± 0.018
6,GTTTTTATGT,0.973 ± 0.014
7,GCGGGCAAGT,0.9903 ± 0.00062
8,TAGAAGGTTG,0.972 ± 0.018
9,GCATTAGGGG,1.01 ± 0.016
10,GGTTGGCGGG,1.07 ± 0.021
11,CTGTAAGGCG,1.05 ± 0.025
12,TGCTGAAAAC,0.974 ± 0.028
13,TTATTCGGCT,1.08 ± 0.05
14,TTATGAGCGT,1 ± 0.014
15,GGGGTATTGC,1.004 ± 0.0076
16,TCAGTGACGG,1.0248 ± 0.00071
17,CATTATAGGC,1.004 ± 0.002
18,TTTTAGGCCC,1.09 ± 0.073
19,ACGGTTTCGT,1.01 ± 0.014
20,TATTATTCTG,0.986 ± 0.023
21,TTAAGATAGT,1.02 ± 0.028
22,GGCTACTGAG,1.08 ± 0.066
23,TTAAAAAGG,1.02 ± 0.037

row,Sequence,switch fluorescence ratio
1,TAGATATCTG,0.974 ± 0.0098
2,TTTTATTTTC,0.993 ± 0.027
3,CTTATTTCCG,1.032 ± 0.0096
4,ACTTCTAATT,1.01 ± 0.038
5,ATAGATCATC,1.05 ± 0.02
6,AGGATAACCG,1.028 ± 0.0012
7,GTCATAACAT,1.018 ± 0.0065
8,GGGCATATTC,1.155 ± 0.0089
9,TATATCAGTT,1.007 ± 0.0087
10,AGCAACCCCG,1.22 ± 0.17
11,AAACGAAAAA,1.04 ± 0.044
12,ACGATTGGTT,1.005 ± 0.01
13,AGGGATCTTT,0.963 ± 0.038
14,ACTGTATATT,1.18 ± 0.023
15,TTAAAGGGCT,0.982 ± 0.044
16,ATGAGGGGGT,1.03 ± 0.024
17,GTGGTTATGC,1.02 ± 0.033
18,CCAGGGAGGT,1 ± 0.034
19,TTTTGCGCGA,1.09 ± 0.095
20,CAAGGGGGTA,0.995 ± 0.037
21,TTACAAAGGA,0.999 ± 0.017
22,GATTTTGAGC,0.9986 ± 0.0048
23,GTGGGATCCG,0.998 ± 0.014

row,Sequence,switch fluorescence ratio
1,ATGAATACAA,1.01 ± 0.014
2,GCTATAGTCG,1.022 ± 0.0027
3,AGAAGCGGTT,1.02 ± 0.025
4,TTGGATAGGG,1.04 ± 0.067
5,CAAGGGTTGT,0.992 ± 0.0024
6,CGCAAAAAGT,1.0219 ± 0.00086
7,TAATCGCGGC,1.31 ± 0.35
8,AATGTTCGTT,1.01 ± 0.014
9,CCATATCGAC,1.05 ± 0.05
10,TTAAGTAGTG,0.98 ± 0.014
11,GGGGGACTAT,1.03 ± 0.023
12,GGGAATATTA,1.04 ± 0.023
13,AAAGGAACTC,0.999 ± 0.092
14,TAAGTTGTTT,0.996 ± 0.013
15,ATAAAGTTGA,1 ± 0.034
16,CGTTGGGCTC,1.019 ± 0.0051
17,CGAGAGGTGG,1.04 ± 0.055
18,AAGCGAGGGG,1.03 ± 0.047
19,GGTTATGGTG,1.02 ± 0.02
